Measured values taken from US20150110817A1, “RADIO-PHARMACEUTICAL COMPLEXES” (published 2015).

Legend:
[1] = molecular target: CD22 on CD22-positive Raji or Ramos cells (human) (UniProt P20273); assay: flow cytometry on CD22-positive Raji cells
[2] = molecular target: CD33 on CD33-positive HL-60 cells (human, UniProt P20138); assay: flow cytometry on HL-60 cells, 50:50 mixture; competitor: mouse anti-human CD33 reference mAb
Method: Binding to CD33-positive HL-60 cells were studied by flow cytometry. The determination of EC₅₀ based on the plotted curve gives an approximate value for the affinity.
The mAb or conjugate to be analyzed was prepared fresh form frozen stock by shifting the storage buffer to PBS, kept at 4° C., and used within a few days after preparation. […] The secondary antibody reagent was prepared at 0.015 mg/mL in PBS, supplemented with 0.1% BSA. The mAb stock was diluted in 10-fold dilution steps, starting from 5 mg/mL. An isotype control mAb (trastuzumab) was prepared accordingly. 20 uL from each dilution step of the anti-human CD33 mAb was added to wells containing HL-60 cells. After incubation for 1 h at 4° C. the cells were spun down and washed three times with 200 μl cold PBS, supplemented with 0.1% BSA. A solution containing 4% goat serum was added as a blocking agent, and incubated for 15 minutes. 20 μl from the secondary antibody reagent was subsequently added to each well, before incubation for 30 min at 4° C. in the dark.
The cells were washed twice, as described above, and re-suspended in 200 μL PBS, supplemented with 0.1% BSA. All samples were analysed in 96-well round or conical bottom plates. Fluorescent signals were recorded on a Beckham Coulter Cell lab Quant SC flow cytometer (Beckman Coulter; CA, USA). […]

| EC50 [1] [nM] | fold less antibody bound [2] [fold] | Molecule |
| --- | --- | --- |
| 9 | – | AGC1100 (anti-CD22 monoclonal antibody hLL2, also called epratuzumab) |
| – | ~0.7 | AGC0700 (anti-CD33 monoclonal antibody, generated from the HuM195 template) (antibody, V domains shown) VH: QVQLVQSGAEVKKPGSSVKVSCKASGYTFTDYNMHWVRQAPGQGLEWIGYIYPYNGGTGYNQKFKSKATITADESTNTAYMELSSLRSEDTAVYYCARGRPAMDYWGQGTLVTVSS VL: DIQMTQSPSSLSASVGDRVTITCRASESVDNYGISFMNWFQQKPGKAPKLLIYAASNQGSGVPSRFSGSGSGTDFTLTISSLQPDDFATYYCQQSKEVPWTFGQGTKVEIKR |
| 6 | – | AGC1115 (AGC1100 conjugated to the water soluble chelator AGC0015) (antibody, INN chains, looked up, V domains shown, conjugated to chelator AGC0015) VH: QVQLVQSGAEVKKPGSSVKVSCKASGYTFTSYWLHWVRQAPGQGLEWIGYINPRNDYTEYNQNFKDKATITADESTNTAYMELSSLRSEDTAFYFCARRDITTFYWGQGTTVTVSS VL: DIQLTQSPSSLSASVGDRVTMSCKSSQSVLYSANHKNYLAWYQQKPGKAPKLLIYWASTRESGVPSRFSGSGSGTDFTFTISSLQPEDIATYYCHQYLSSWTFGGGTKLEIK |
